Publication PMC3427469

Tests used:
GST-WAVE2 = GST-WAVE2 (UniProt Q9Y6W5); assay: pull-down
FLAG-WAVE2 = FLAG-WAVE2 (UniProt Q9Y6W5); assay: co-IP
FLAG-WAVE2, sequence (Q9Y6W5 whole entry): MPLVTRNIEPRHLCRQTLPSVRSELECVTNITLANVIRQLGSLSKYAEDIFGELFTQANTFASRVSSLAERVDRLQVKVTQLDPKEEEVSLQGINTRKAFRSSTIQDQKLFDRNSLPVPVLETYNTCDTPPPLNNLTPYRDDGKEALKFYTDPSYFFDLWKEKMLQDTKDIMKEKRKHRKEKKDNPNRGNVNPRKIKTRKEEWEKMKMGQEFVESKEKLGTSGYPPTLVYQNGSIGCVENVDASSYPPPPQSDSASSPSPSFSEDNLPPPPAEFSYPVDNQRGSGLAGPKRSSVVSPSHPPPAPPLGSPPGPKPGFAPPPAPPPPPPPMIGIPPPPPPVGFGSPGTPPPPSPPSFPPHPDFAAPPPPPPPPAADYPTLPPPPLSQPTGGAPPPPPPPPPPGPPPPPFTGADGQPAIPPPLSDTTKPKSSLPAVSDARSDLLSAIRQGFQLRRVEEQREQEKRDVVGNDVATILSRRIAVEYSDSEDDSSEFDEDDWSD

GST-WAVE2, sequence (Q9Y6W5 whole entry): as above

| KD in the presence of Exo70 (GST-WAVE2) [µM] | Kd (GST-WAVE2) [µM] | fold increase of Arp2/3 bound in the presence of Exo70 against BSA (GST-WAVE2) [fold] | Arp3 co-precipitated after Exo70 siRNA, percent of control siRNA-treated cells (FLAG-WAVE2) [%] | Substance |
| --- | --- | --- | --- | --- |
| 0.21 | 0.47 | 3.5 |  | Arp2/3 complex (purified) (from UniProt P61158 1-418) |
|  |  |  | 44 | Arp2/3 complex, endogenous in MDA-MB-231 cells (from UniProt P61158 1-418) |
